Source: publication PMC2364200

Target: vitronectin (UniProt P04004)
Chain of UniProt P04004 (P04004 20-478): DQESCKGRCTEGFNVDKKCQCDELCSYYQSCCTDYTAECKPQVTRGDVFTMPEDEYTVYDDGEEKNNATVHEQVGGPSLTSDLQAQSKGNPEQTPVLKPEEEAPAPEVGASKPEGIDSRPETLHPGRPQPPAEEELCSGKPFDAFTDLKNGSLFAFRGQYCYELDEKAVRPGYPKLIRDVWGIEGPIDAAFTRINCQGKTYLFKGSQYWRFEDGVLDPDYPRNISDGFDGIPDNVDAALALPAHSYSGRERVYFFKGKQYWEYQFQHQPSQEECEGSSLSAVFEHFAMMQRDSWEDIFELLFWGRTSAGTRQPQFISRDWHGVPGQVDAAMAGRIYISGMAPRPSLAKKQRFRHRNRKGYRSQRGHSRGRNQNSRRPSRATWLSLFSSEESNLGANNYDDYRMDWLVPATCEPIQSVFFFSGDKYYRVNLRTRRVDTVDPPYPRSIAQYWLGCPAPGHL

adhesion of V3B3 cells on vitronectin (C1 null transfectant cells without avb3: 6.52%) [%] | haptotactic migration of V3B3 cells towards vitronectin (C1 cells: 2.01%) [%] | haptotactic migration of V3B3 cells towards vitronectin in the presence of LM609 [%] | inhibition of adhesion of V3B3 cells to vitronectin by LM609 (anti-avb3 blocking antibody) [%] | adhesion of V3B3S11aa cells on vitronectin (C1 null transfectant cells without avb3: 6.52%) [%] | haptotactic migration of V3B3S11aa cells towards vitronectin (C1 cells: 2.01%) [%] | haptotactic migration of V3B3S11aa cells towards vitronectin in the presence of LM609 [%] | inhibition of adhesion of V3B3S11aa cells to vitronectin by LM609 (anti-avb3 blocking antibody) [%] | Substance
38.6 | 20.3 | 3.92 | 30.6 |  |  |  |  | avb3 integrin heterodimer, wild type b3 (on V3B3 squamous cell carcinoma cells) (from UniProt P06756 31-1048; P05106 27-788) (receptor)
 |  |  |  | 39.5 | 21.8 | 0 | 26 | avb3 integrin heterodimer with the b3 chimaeric mutant whose cytoplasmic domain is extended by the C-terminal 11 amino acids of b6 (on V3B3S11aa squamous cell carcinoma cells) (from UniProt P06756 31-1048; P05106 27-788; P18564 778-788) (receptor)
